Article PMC8782169, “The distinct RNA-interaction modes of a small ZnF domain underlay TUT4(7) diverse action in miRNA regulation”

Columns and labels:
Conditions in all cases: protein: recombinant; tags: N-terminal His6 removed by TEV
hTUT4 CCHC-ZnF2 [1] = target: T1, hTUT4 CCHC-ZnF2 (Homo sapiens, UniProt Q5TAX3 1293-1321); assay: BLI; NMR: 10 mM Tris-HCl pH 7.4, 100 mM NaCl, 0.5 mM TCEP, 10 uM ZnCl2, 25 C, 50 uM protein; BLI: streptavidin sensors, 1-8 uM protein, buffer not in material
T1 chain: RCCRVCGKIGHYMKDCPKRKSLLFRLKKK

hTUT4 CCHC-ZnF2-3 [2] = target: T2, hTUT4 CCHC-ZnF2-3 (Homo sapiens, UniProt Q5TAX3 1293-1382); assay: BLI; affinity very similar to ZnF2 (value in figure only); NMR: 10 mM Tris-HCl pH 7.4, 100 mM NaCl, 0.5 mM TCEP, 10 uM ZnCl2, 25 C, 50 uM protein; BLI: streptavidin sensors, 1-8 uM protein, buffer not in material
T2 sequence: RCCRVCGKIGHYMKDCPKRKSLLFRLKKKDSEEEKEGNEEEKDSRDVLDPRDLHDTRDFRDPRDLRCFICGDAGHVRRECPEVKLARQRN

hTUT4 CCHC-ZnF2 [3] = target: T1, hTUT4 CCHC-ZnF2; assay: NMR titration (15N HSQC CSP); 10 uM ZnCl2; protein:RNA 1:10; NMR: 10 mM Tris-HCl pH 7.4, 100 mM NaCl, 0.5 mM TCEP, 10 uM ZnCl2, 25 C, 50 uM protein; BLI: streptavidin sensors, 1-8 uM protein, buffer not in material
hTUT4 CCHC-ZnF2 [4] = target: T1, hTUT4 CCHC-ZnF2; assay: NMR titration (15N HSQC CSP); 10 uM ZnCl2; NMR: 10 mM Tris-HCl pH 7.4, 100 mM NaCl, 0.5 mM TCEP, 10 uM ZnCl2, 25 C, 50 uM protein; BLI: streptavidin sensors, 1-8 uM protein, buffer not in material
hTUT4 CCHC-ZnF2-3 [5] = target: T2, hTUT4 CCHC-ZnF2-3; assay: BLI; affinity very similar to ZnF2; ~2-fold slower association and slightly longer lifetime (value in figure only); NMR: 10 mM Tris-HCl pH 7.4, 100 mM NaCl, 0.5 mM TCEP, 10 uM ZnCl2, 25 C, 50 uM protein; BLI: streptavidin sensors, 1-8 uM protein, buffer not in material

B1: UUUGGA RNA (short RNA with SIA sequence) (ssRNA)
RNA: UUUGGA
With B1 the Kd (hTUT4 CCHC-ZnF2 [1]) was about 4 µM and the binding result (hTUT4 CCHC-ZnF2-3 [2]) was “binds”.

B2: UUUU RNA (ssRNA)
RNA: UUUU
B2: no binding (hTUT4 CCHC-ZnF2 [3]).

B3: CGGA RNA (ssRNA)
RNA: CGGA
Work on B3 yielded a Kd (hTUT4 CCHC-ZnF2 [4]) of 3.7 ± 0.4 µM.

B4: Let-7i miRNA (ssRNA)
RNA: UGAGGUAGUAGUUUGUGCUGUU
With B4 the binding result (hTUT4 CCHC-ZnF2-3 [5]) was “binds” and the Kd (hTUT4 CCHC-ZnF2 [1]) was about 4 µM.
